Experimental data as given in US20260159601A1 (Hoffmann-La Roche, published 2026).

Experiments:
[1] = biological target: T1, human CD20 (human, UniProt P11836 1-297); test: cell-based or functional assay
T1 sequence: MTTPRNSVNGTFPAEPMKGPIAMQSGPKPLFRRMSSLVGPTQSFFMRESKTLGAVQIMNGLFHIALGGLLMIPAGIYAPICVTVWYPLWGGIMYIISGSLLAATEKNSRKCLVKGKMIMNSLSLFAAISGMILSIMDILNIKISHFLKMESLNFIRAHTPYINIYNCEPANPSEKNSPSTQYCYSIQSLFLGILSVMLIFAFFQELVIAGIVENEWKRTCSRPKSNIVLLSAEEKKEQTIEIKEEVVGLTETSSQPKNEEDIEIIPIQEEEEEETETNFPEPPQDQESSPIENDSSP

[2] = biological target: T1, human CD20; test: flow cytometry on a human B-cell lymphoma cell line, 30 min at 4 C, detection with FITC-labeled F(ab)'2 goat anti-human Fc-gamma-specific antibody, median fluorescence intensity
[3] = biological target: T2, cynomolgus monkey transferrin receptor 1 (cynomolgus monkey, UniProt H9EXL1 89-760 (rhesus entry)); test: surface plasmon resonance at 37° C.; cynomolgus TfR1; SPR at 37° C.
T2 construct: also called cyTfR1

[4] = biological target: CD20 (species not stated, in-vitro-measured KD used in the cynomolgus monkey PK model); test: in vitro measurement, method not stated; value used in the PK model
[5] = biological target: human transferrin receptor 1 on MDCKII cells transfected with huTfR1 (human, UniProt P02786 1-760); test: cell-based or functional assay
Chain of human transferrin receptor 1 on MDCKII cells transfected with huTfR1 (P02786 whole entry): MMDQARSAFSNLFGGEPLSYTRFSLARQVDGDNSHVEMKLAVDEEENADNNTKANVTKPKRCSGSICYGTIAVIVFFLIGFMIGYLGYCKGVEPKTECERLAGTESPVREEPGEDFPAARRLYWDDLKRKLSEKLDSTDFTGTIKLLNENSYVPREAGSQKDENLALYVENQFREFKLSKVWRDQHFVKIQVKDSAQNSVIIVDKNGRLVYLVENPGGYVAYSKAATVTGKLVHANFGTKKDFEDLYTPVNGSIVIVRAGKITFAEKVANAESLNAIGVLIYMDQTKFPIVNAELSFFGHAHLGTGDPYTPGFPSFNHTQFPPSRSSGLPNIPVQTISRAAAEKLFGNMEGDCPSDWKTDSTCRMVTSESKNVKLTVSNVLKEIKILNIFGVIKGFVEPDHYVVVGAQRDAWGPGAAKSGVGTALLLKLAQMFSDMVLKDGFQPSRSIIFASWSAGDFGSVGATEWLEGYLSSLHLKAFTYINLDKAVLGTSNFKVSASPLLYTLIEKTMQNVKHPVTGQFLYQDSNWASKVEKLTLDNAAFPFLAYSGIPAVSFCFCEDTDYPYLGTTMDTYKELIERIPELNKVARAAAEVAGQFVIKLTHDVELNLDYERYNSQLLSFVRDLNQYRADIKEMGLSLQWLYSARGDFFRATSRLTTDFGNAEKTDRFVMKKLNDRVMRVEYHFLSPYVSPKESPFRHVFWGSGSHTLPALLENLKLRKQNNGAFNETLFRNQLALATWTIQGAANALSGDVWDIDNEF

T2 sequence (chain, as listed by the source): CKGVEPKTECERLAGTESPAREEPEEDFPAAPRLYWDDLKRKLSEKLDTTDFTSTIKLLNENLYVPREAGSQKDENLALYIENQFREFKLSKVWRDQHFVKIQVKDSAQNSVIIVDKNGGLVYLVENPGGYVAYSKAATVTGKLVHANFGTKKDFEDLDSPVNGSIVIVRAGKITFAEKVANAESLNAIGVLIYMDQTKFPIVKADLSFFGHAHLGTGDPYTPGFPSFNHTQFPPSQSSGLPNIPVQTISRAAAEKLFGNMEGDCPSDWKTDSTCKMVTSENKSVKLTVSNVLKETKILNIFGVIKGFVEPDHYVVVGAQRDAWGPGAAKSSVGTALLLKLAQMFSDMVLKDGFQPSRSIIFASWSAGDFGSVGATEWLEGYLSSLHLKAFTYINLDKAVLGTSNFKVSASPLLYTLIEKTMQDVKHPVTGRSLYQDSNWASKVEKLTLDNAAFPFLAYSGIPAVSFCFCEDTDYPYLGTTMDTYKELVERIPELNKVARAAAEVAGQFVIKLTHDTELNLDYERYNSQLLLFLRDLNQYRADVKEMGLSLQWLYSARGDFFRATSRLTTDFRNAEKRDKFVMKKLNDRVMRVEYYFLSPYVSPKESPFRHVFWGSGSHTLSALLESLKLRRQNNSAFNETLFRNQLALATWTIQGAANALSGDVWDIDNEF

B1: RG6035 (bispecific antibody, human IgG1, kappa, L234A L235A)
light 1: DIVMTQTPLSLPVTPGEPASISCRSSKSLLHSNGITYLYWYLQKPGQSPQLLIYQMSNLVSGVPDRFSGSGSGTDFTLKISRVEAEDVGVYYCAQNLELPYTFGGGTKVEIKRTVAAPSVFIFPPSDRKLKSGTASVVCLLNNFYPREAKVQWKVDNALQSGNSQESVTEQDSKDSTYSLSSTLTLSKADYEKHKVYACEVTHQGLSSPVTKSFNRGEC
heavy 1: VQLVQSGAEVKKPGSSVKVSCKASGYAFSYSWINWVRQAPGQGLEWMGRIFPGDGDTDYNGKFKGRVTITADKSTSTAYMELSSLRSEDTAVYYCARNVFDGYWLVYWGQGTLVTVSSASTKGPSVFPLAPSSKSTSGGTAALGCLVEDYFPEPVTVSWNSGALTSGVHTFPAVLQSSGLYSLSSVVTVPSSSLGTQTYICNVNHKPSNTKVDEKVEPKSCDKTHTCPPCPAPEAAGGPSVFLFPPKPKDTLMISRTPEVTCVVVDVSHEDPEVKFNWYVDGVEVHNAKTKPREEQYNSTYRVVSVLTVLHQDWLNGKEYKCKVSNKALGAPIEKTISKAKGQPREPQVCTLPPSRDELTKNQVSLSCAVKGFYPSDIAVEWESNGQPENNYKTTPPVLDSDGSFFLVSKLTVDKSRWQQGNVFSCSVMHEALHNHYTQKSLSLSPG
light 2: AIQLTQSPSSLSASVGDRVTITCRASQSISSYLAWYQQKPGKAPKLLIYRASTLASGVPSRFSGSGSGTDFTLTISSLQPEDFATYYCQQNYASSNVDNTFGGGTKVEIKSSASTKGPSVFPLAPSSKSTSGGTAALGCLVKDYFPEPVTVSWNSGALTSGVHTFPAVLQSSGLYSLSSVVTVPSSSLGTQTYICNVNHKPSNTKVDKKVEPKSC
heavy 2: not shown
notes: human IgG1 Fc with L234A, L235A, P329G; also called RO7121932; BS-CD20
What does the source list for B1?
EC50 of CD19+-B-cell depletion, ex vivo human tonsil-derived cells, average of three donors [1]: 400 pM; EC50 of CD19+-B-cell depletion, ex vivo human tonsil-derived cells, donor T1 [1]: 440 pM; EC50 of CD19+-B-cell depletion, ex vivo human tonsil-derived cells, donor T2 [1]: 200 pM; EC50 of CD19+-B-cell depletion, ex vivo human tonsil-derived cells, donor T3 [1]: 550 pM; EC50 (read off the curve) [2]: ~3000 pM; Kd [3]: 694000 pM; Kd [4]: 3300 pM; intracellular uptake in MDCKII-huTfR cells against non-transfected MDCKII-parental cells, 30-minute pulse, IgG ELISA [5]: 30 fold
